{
  "source": "patent WO2021110095A1",
  "about": "(dated 2021)",
  "binders": {"B1": {"name": "humanized antibody Ab9 (antibody, human IgG1, kappa, V domains shown)", "VH": "QVQLVQSGAEVKKPGASVKVSCKASGYTFTDYEMHWVRQAPGQGLEWMGAIDPKTGRTAYNQKFKDRVTLTADKSTSTAYMELSSLTSEDTAVYYCTRYYSYAYWGQGTLVTVSS", "VL": "DVVMTQSPLSLSVTPGEPASISCRSSQSLVHSNRNTYLQWYLQKPGQPPQLLIYKVSNRFSGVPDRFSGSGSGTDFTLKISRVEAEDVGVYYCSQSIHVPYTFGQGTKLEIKR"}},
  "target": "human GPC3 full-length protein on cells (CHO-K1-hGPC3; cells expressing GPC3) (human, UniProt P51654 25-580)",
  "sequence (P51654 25-580, form in doubt)": "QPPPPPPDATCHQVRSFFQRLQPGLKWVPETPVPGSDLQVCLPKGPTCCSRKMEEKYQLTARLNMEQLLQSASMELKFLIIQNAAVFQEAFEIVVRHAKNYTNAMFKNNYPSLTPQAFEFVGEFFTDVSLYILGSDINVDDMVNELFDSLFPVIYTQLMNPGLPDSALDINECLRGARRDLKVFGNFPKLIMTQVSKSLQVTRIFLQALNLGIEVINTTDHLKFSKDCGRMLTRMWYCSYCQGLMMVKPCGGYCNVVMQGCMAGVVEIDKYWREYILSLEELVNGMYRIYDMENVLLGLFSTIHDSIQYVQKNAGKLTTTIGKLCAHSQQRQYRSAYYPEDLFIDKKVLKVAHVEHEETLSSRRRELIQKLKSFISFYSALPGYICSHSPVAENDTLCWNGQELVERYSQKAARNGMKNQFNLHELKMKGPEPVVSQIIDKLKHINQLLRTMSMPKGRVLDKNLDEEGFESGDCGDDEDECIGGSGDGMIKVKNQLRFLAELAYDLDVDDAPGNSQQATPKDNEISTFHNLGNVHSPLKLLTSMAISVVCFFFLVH",
  "experiment": "cell-based or functional assay",
  "data": [
    {"binder": "B1", "values": [
      {"measurement": "CDC, IC50", "value": 308, "unit": "pM"}
    ]}
  ]
}
